The values that follow come from US8287850B2, “Conjugates of hydroxyalkyl starch and a protein, prepared by reductive amination” (Fresenius Kabi Deutschland GmbH, priority 2004, dated 2012).

Series [1] has as its system normocythaemic mouse system. The series can be described thus: EPO-bioassay in the normocythaemic mouse system. Type of series: in vivo. The method, then:
Quantitative determination of EPO protein was performed by measuring UV absorption at 280 nm according to the Eur. Phar. (European Pharmacopeia 4, Monography 01/2002: 1316: erythropoietin concentrated solution) in a cuvette with 1 cm path length. In addition, EPO was quantitated by applying a RP-HPLC method using a RP-C4 column (Vydac Protein C4, Cat.#214TP5410, Grace Vydac, Ca, US); the HPLC method was calibrated using the erythropoietin BRP 1 reference standard (European Pharmacopeia, Conseil de l'Europe B.P. 907-F67029, Strasbourg Cedex 1).
The EPO-bioassay in the normocythaemic mouse system was performed according to the procedures described in the European Pharmacopeia 4, Monography 01/2002:1316: Erythropoietin concentrated solution and Ph. Eur. Chapter 5.3: “Statistical Analysis of Results of Biological Assays and Tests”; For the HES-modified EPO according to example 7.3 a value for the specific activity of 418 500 units per mg EPO of protein was measured indicating an approximately 4-5 fold higher specific activity when compared to the EPO starting material.

Series [2] can be described thus: In vivo half-life of G-CSF samples in mice (ELISA of plasma). To be noted: 100 μg per kg i.v. tail vein, female BALB/c mice. How it is done: Female mice BALB/cOlaHsd (Harlan GmbH/Borchen) were used. On the day of administration, the is weights of the animals were measured (19-22 g). 100 μg per kg body weight of the chemically modified rh-G-CSF sample as prepared in Example 6.2(b) as well as Neupogen® and Neulasta® (Amgen) samples were each injected intravenously in the tail vein of nine mice. At 1, 3, 6, 11, 22, 30, 49, 72 hours after injection (see table below), samples of approx. 150 μl whole blood were taken from the tail vein or the retrobulbar venous plexus from 3 mice of the respective group using capillaries containing sodium-heparin (Hirschmann, Eberstadt) and stored on ice until preparation of plasma.
Whole blood was centrifuged for 10 minutes at 2000 g. Plasma was transferred to another tube and recentrifuged for 5 min at 3500 g. Aliquots were stored at −80° C. until the day of analysis. The amount of G-CSF in the plasma samples were quantified by utilizing a ELISA (R&D GambH, Wiesbaden) method, following the instruction of the manufacturer.

For a further series, the system named is mouse NFS-60 cells. The series can be described thus: Mitogenicity of G-CSF variants for mouse NFS-60 cells (Example 6.3). Format: cell-based. To be noted: 3 days. The method, then: G-CSF is known for its specific effects on the proliferation, differentiation and activation of hematopoietic cells of the neutrophilic granulocyte lineage. The mitogenic capacity of G-CSF variants was tested using mouse NFS-60 cells (N. Shirafuji et al., Exp. Hematol. 1989, 17, 116-119). Cells grown in RPMI medium with 10% fetal calf serum (Gibco INVITROGEN GmbH, Karlsruhe, D) containing 5-10% WEHI-3B (DSMZ, Braunschweig, D; cultivated as described by the DSMZ) conditioned medium as source of exogenous IL-3 were harvested by centrifugation, washed and aliquoted at 100,000 cells per well in a 24-well plate. Cells were allowed to adapt for 1 hour at 37° C. in RPMI medium without WEHI-3B conditioned media before G-CSF growth factor samples diluted in the same media were added. NFS-60 cells were exposed to purified G-CSF variants (purification according to examples 3A 1 und 2, protein quantification according to example 3B1):
“Mock incubation” (=reaction control, 197 mg/ml HES50/0.7, MW 47,000 D, DS 0.76, Supramol Parenteral Colloids GmbH, Rosbach Rodheim, Germany), for 3 days at 37° C. and then the cells were electronically counted (Casy TT Cell Counter, Schärfe System, Reutlingen, D).
In all cases, the amounts of protein given in the table below and FIG. 21 represent the G-CSF content of the conjugates only. […] All variants reached the same maximum stimulation level at a concentration of 250 pg/ml.

Where [3] appears, read: Conc. 250 pg/ml (G-CSF content).

Turning to “EPO starting material (not modified): recombinant human EPO, essentially same characteristics as Erypo or NeoRecormon”, in series [1] (mouse, in vivo), the “Calculated specific activity of EPO sample (based on A280 and RP-HPLC determination)” value (“Calculated specific activity” for short) is 89000 U/mg.

As for “EPO HES according to example 7.3: recombinant human EPO conjugated with aldehydo-HES of example 7.2 (MW 57,000 D, DS 0.76) by reductive amination”, in series [1] (mouse, in vivo), the “Calculated specific activity” value is given as 418500 U/mg; the “higher specific activity when compared to the EPO starting material” value is on record as 4-5 fold. Further, the specific activity in series [1] (per mg EPO of protein) is on record as 418 500 units per mg.

As to “EPO starting material (Reaction control A): EPO reacted with aldehydo-HES without sodium cyanoborohydride (example 7.4)”, the “Calculated specific activity” value in series [1] (mouse, in vivo) is recorded as 88500 U/mg.

B1: HES-GCSF 50/0.7: hG-CSF conjugated with AldehydoHES50/0.7 of example 6.1(j), prepared in example 6.2(b) (conjugate, UniProt P09919 31-207, looked up)
Granulocyte …: TPLGPASSLPQSFLLKCLEQVRKIQGDGAALQEKLVSECATYKLCHPEELVLLGHSLGIPWAPLSSCPSQALQLAGCLSQLHSGLFLYQGLLQALEGISPELGPTLDTLQLDVADFATTIWQQMEELGMAPALQPTQGAMPAFASAFQRRAGGVLVASHLQSFLEVSYRVLRHLAQP
modifications: hydroxyethyl starch conjugate HES50/0.7
In series [2], B1 returned a half-life of 5.1 h. Further, the “Proliferation of mouse NFS-60 cells, induced by G-CSF variants” value (“Proliferation of mouse NFS-60 cells” for short) was 0.70 in the series with mouse NFS-60 cells (Conc. 5 pg/ml (G-CSF content)); 0.97 with mouse NFS-60 cells (Conc. 10 pg/ml (G-CSF content)); 1.68 in the series on mouse NFS-60 cells (Conc. 25 pg/ml (G-CSF content)); 2.15 in the series with mouse NFS-60 cells (Conc. 50 pg/ml (G-CSF content)); 2.32 in the series with mouse NFS-60 cells (setting [3]).

B2: HES-GCSF 30/0.4: hG-CSF conjugated with AldehydoHES30/0.4 of example 6.1(f), prepared in example 6.2(d) (conjugate, UniProt P09919 31-207, looked up)
Granulocyte …: TPLGPASSLPQSFLLKCLEQVRKIQGDGAALQEKLVSECATYKLCHPEELVLLGHSLGIPWAPLSSCPSQALQLAGCLSQLHSGLFLYQGLLQALEGISPELGPTLDTLQLDVADFATTIWQQMEELGMAPALQPTQGAMPAFASAFQRRAGGVLVASHLQSFLEVSYRVLRHLAQP
modifications: hydroxyethyl starch conjugate HES30/0.4
With B2, the “Proliferation of mouse NFS-60 cells” value in the series with mouse NFS-60 cells (Conc. 5 pg/ml (G-CSF content)) is 1.21; with mouse NFS-60 cells (Conc. 10 pg/ml (G-CSF content)), 1.62; with mouse NFS-60 cells (Conc. 25 pg/ml (G-CSF content)), 2.28; in the series on mouse NFS-60 cells (Conc. 50 pg/ml (G-CSF content)) it was 2.50; in the series on mouse NFS-60 cells (setting [3]), 2.60.

B3: HES-GCSF 10/0.4: hG-CSF conjugated with AldehydoHES10/0.4 of example 6.1(b), prepared in example 6.2(b) (conjugate, UniProt P09919 31-207, looked up)
Granulocyte …: TPLGPASSLPQSFLLKCLEQVRKIQGDGAALQEKLVSECATYKLCHPEELVLLGHSLGIPWAPLSSCPSQALQLAGCLSQLHSGLFLYQGLLQALEGISPELGPTLDTLQLDVADFATTIWQQMEELGMAPALQPTQGAMPAFASAFQRRAGGVLVASHLQSFLEVSYRVLRHLAQP
modifications: hydroxyethyl starch conjugate HES10/0.4
For the molecule B3, the “Proliferation of mouse NFS-60 cells” value in the series on mouse NFS-60 cells (Conc. 5 pg/ml (G-CSF content)) is 0.97; in the series on mouse NFS-60 cells (Conc. 10 pg/ml (G-CSF content)) it was 1.40; with mouse NFS-60 cells (Conc. 25 pg/ml (G-CSF content)), 2.17; in the series with mouse NFS-60 cells (Conc. 50 pg/ml (G-CSF content)) it was 2.67; in the series with mouse NFS-60 cells (setting [3]), 2.75.

B4: Neulasta: non-modified Neulasta (Amgen) (conjugate, UniProt P09919 31-207, looked up)
Granulocyte …: TPLGPASSLPQSFLLKCLEQVRKIQGDGAALQEKLVSECATYKLCHPEELVLLGHSLGIPWAPLSSCPSQALQLAGCLSQLHSGLFLYQGLLQALEGISPELGPTLDTLQLDVADFATTIWQQMEELGMAPALQPTQGAMPAFASAFQRRAGGVLVASHLQSFLEVSYRVLRHLAQP
modifications: pegfilgrastim; 20 kDa PEG
Molecule B4 came in with a half-life in series [2] of 5.2 h. For the same molecule, the “Proliferation of mouse NFS-60 cells” value in the series on mouse NFS-60 cells (Conc. 5 pg/ml (G-CSF content)) was 0.80; with mouse NFS-60 cells (Conc. 10 pg/ml (G-CSF content)) it was 1.12; with mouse NFS-60 cells (Conc. 25 pg/ml (G-CSF content)) it was 1.83; in the series with mouse NFS-60 cells (Conc. 50 pg/ml (G-CSF content)), 2.25; with mouse NFS-60 cells (setting [3]) it was 2.33.

B5: HES-GCSF 10/0.7: hG-CSF conjugated with AldehydoHES10/0.7 of example 6.1(d), prepared in example 6.2(b) (conjugate, UniProt P09919 31-207, looked up)
Granulocyte …: TPLGPASSLPQSFLLKCLEQVRKIQGDGAALQEKLVSECATYKLCHPEELVLLGHSLGIPWAPLSSCPSQALQLAGCLSQLHSGLFLYQGLLQALEGISPELGPTLDTLQLDVADFATTIWQQMEELGMAPALQPTQGAMPAFASAFQRRAGGVLVASHLQSFLEVSYRVLRHLAQP
modifications: hydroxyethyl starch conjugate HES10/0.7
Consider B5, for which the “Proliferation of mouse NFS-60 cells” value in the series with mouse NFS-60 cells (Conc. 5 pg/ml (G-CSF content)) is reported as 0.93; with mouse NFS-60 cells (Conc. 10 pg/ml (G-CSF content)) it was 1.44; with mouse NFS-60 cells (Conc. 25 pg/ml (G-CSF content)), 2.14; with mouse NFS-60 cells (Conc. 50 pg/ml (G-CSF content)) it was 2.41; in the series on mouse NFS-60 cells (setting [3]), 2.41.

B6: Neupogen: non-modified Neupogen (Amgen), rhG-CSF filgrastim, non-glycosylated, E. coli (protein, UniProt P09919 31-207, looked up)
Granulocyte …: TPLGPASSLPQSFLLKCLEQVRKIQGDGAALQEKLVSECATYKLCHPEELVLLGHSLGIPWAPLSSCPSQALQLAGCLSQLHSGLFLYQGLLQALEGISPELGPTLDTLQLDVADFATTIWQQMEELGMAPALQPTQGAMPAFASAFQRRAGGVLVASHLQSFLEVSYRVLRHLAQP
modifications: filgrastim, N-terminal Met
notes: non-modified Neupogen (Amgen), rhG-CSF filgrastim, non-glycosylated, E. coli
For B6, in series [2], the half-life is on record as 1.2 h. The “Proliferation of mouse NFS-60 cells” value is 1.20 in the series on mouse NFS-60 cells (Conc. 5 pg/ml (G-CSF content)); 1.69 with mouse NFS-60 cells (Conc. 10 pg/ml (G-CSF content)); 2.33 with mouse NFS-60 cells (Conc. 25 pg/ml (G-CSF content)); 2.49 in the series with mouse NFS-60 cells (Conc. 50 pg/ml (G-CSF content)); 2.41 in the series with mouse NFS-60 cells (setting [3]).

B7: Mock-incubation: reaction control: hG-CSF incubated with 197 mg/ml non-functionalized HES50/0.7 (MW 47,000 D, DS 0.76) (protein, UniProt P09919 31-207, looked up)
Granulocyte …: TPLGPASSLPQSFLLKCLEQVRKIQGDGAALQEKLVSECATYKLCHPEELVLLGHSLGIPWAPLSSCPSQALQLAGCLSQLHSGLFLYQGLLQALEGISPELGPTLDTLQLDVADFATTIWQQMEELGMAPALQPTQGAMPAFASAFQRRAGGVLVASHLQSFLEVSYRVLRHLAQP
modifications: mixed with non-functionalized HES
B7: the “Proliferation of mouse NFS-60 cells” value was 1.31 in the series on mouse NFS-60 cells (Conc. 5 pg/ml (G-CSF content)); 1.91 in the series on mouse NFS-60 cells (Conc. 10 pg/ml (G-CSF content)); 2.38 in the series with mouse NFS-60 cells (Conc. 25 pg/ml (G-CSF content)); 2.47 in the series on mouse NFS-60 cells (Conc. 50 pg/ml (G-CSF content)); 2.41 with mouse NFS-60 cells (setting [3]).

By half-life is commonly meant the time in which the quantity being followed falls by half. Low values mean fast loss, high ones slow loss.
